# Test results from the RNAGym collection of RNA variant scans (doi:10.7554/elife.80360).
# B1: CPEB3 Ribozyme (parent)
# chain: GGGGGCCACAGCAGAAGCGUUCACGUCGCGGCCCCUGUCAGAUUCUGGUGAAUCUGCGAAUUCUGCUGU
# Variants of: B1
# Test: self-cleavage, relative activity (ratio to wild type); higher = more cleavage; co-transcriptional
row,Variant,self-cleavage
1,A52U C57A,0.453
2,A52U C57U,0.309
3,A52U C57G,0.334
4,A52G U62G,0.963
5,A52G U62C,0.915
6,A52G U62A,0.871
7,G50C A60U,0.456
8,A51G U64A,0.991
9,A51G U64G,0.917
10,A51G U64C,0.949
11,A52G C57U,0.407
12,A52G C57G,0.23
13,A52C C54A,0.615
14,A52C C54U,0.856
15,A52C C54G,0.562
16,G50C U61C,0.762
17,G50C U61A,0.823
18,G50C U61G,0.526
19,A51U U61G,0.772
20,A51U U61A,0.932
21,G50C C54G,0.654
22,G50C C54U,0.921
23,A51G G68A,1.01
24,A51G G68C,0.911

row,Variant,self-cleavage
1,A51G G68U,1.03
2,G50U C54U,0.968
3,G50U C54A,0.858
4,G50C U55C,0.486
5,G50C U55G,0.685
6,G50C U55A,0.794
7,U53C A59C,0.525
8,U53C A59U,0.618
9,U53C A59G,0.944
10,U53A G68C,1.03
11,U53A G68U,0.978
12,U53A G68A,1.03
13,U53A C57G,0.345
14,U53A C57U,0.376
15,A52C U55C,0.686
16,A52C U55A,0.631
17,A52C U55G,0.56
18,A52U U55C,0.63
19,A51U G68C,1
20,A51U G68U,1.01
21,A51U G68A,0.999
22,A52U G56C,0.456
23,A51C A60G,0.85
24,A51C A60U,0.468

row,Variant,self-cleavage
1,A52C A60U,0.476
2,A51U U62G,0.868
3,A51U U62C,0.892
4,A51U U62A,0.931
5,A51C G58A,0.92
6,A51C G58U,1.03
7,A51C G58C,0.957
8,A52U G65A,0.783
9,U53A C54G,0.586
10,A51C G68U,1.01
11,A51C G68A,0.961
12,A51C G68C,0.996
13,A51U G65U,0.765
14,A51U G65A,0.889
15,A51C G56A,0.856
16,A51C G56U,0.8
17,G50U U69G,1.05
18,G50U U69C,1.09
19,G50U U69A,0.99
20,G50C G56A,0.831
21,G50C G56U,0.842
22,A52G U64G,0.957
23,A52G U64C,0.912
24,A52G U64A,0.911

row,Variant,self-cleavage
1,A51G U67C,0.99
2,A51G U67A,0.967
3,A51G U67G,1.01
4,U53A G58A,0.919
5,U53A G58C,0.917
6,U53A G58U,0.944
7,A51U A52C,0.969
8,A51U A52G,0.982
9,U53A U64G,0.626
10,U53A U64A,0.822
11,U53A U64C,0.693
12,G50U U62A,0.989
13,G50U U62G,0.977
14,A52U C54A,0.907
15,A52U C54G,0.835
16,G50C G68U,0.973
17,G50C G68C,0.964
18,U53A U55A,0.354
19,A52C G68U,0.979
20,G50C C63A,0.813
21,G50C C63U,0.97
22,G50C C63G,0.738
23,A52G G56C,0.819
24,A52G G56U,0.97

row,Variant,self-cleavage
1,A52G G56A,0.983
2,A52U A59C,0.716
3,A52U A59G,0.972
4,A52U A59U,0.803
5,U53A G65U,0.587
6,U53A G65C,0.552
7,U53A G65A,0.739
8,A52U U69G,1.04
9,A52U U69C,1.05
10,G50U U64A,0.954
11,A52U C63G,0.72
12,A52U C63A,0.789
13,U53A U67A,0.834
14,U53A U67G,0.938
15,A51U C54U,0.932
16,A51U C54G,0.677
17,G50C U64C,0.823
18,G50C U64G,0.844
19,A51U A59U,0.762
20,A51U A59C,0.645
21,A51U U53G,0.825
22,A51U U53C,0.863
23,A52C U61A,0.893
24,A52C U61C,0.759

row,Variant,self-cleavage
1,A52C U61G,0.67
2,U53C,0.947
3,U53A,0.973
4,A51C C57U,0.338
5,A51C C57A,0.294
6,A52C U67A,0.963
7,A52G C63U,1
8,A52G C63A,0.907
9,A52G C63G,0.865
10,A52U C66U,0.973
11,A52U C66A,0.701
12,A52C U64C,0.842
13,A52C U64G,0.829
14,A51C G65A,0.807
15,A51C G65C,0.64
16,A52C U53C,0.806
17,A52C U53A,0.936
18,A52C G65U,0.765
19,A52C G65C,0.582
20,A52C G65A,0.88
21,A52C C63G,0.688
22,A52C C63U,0.973
23,G50U U53A,0.999
24,A52U A60C,0.47

row,Variant,self-cleavage
1,A52U A60U,0.486
2,A52U A60G,0.808
3,A51G A52C,0.94
4,A51G A52U,0.902
5,G50U U67C,1.01
6,A51C C66A,0.628
7,A51C C66G,0.777
8,A51C C66U,0.937
9,A51C U61A,0.813
10,A51U C66U,0.981
11,A51U C66G,0.752
12,A51U C66A,0.706
13,A51U A60C,0.378
14,A51U A60G,0.891
15,A51U A60U,0.438
16,G50C G65C,0.585
17,G50C G65A,0.885
18,A52U G68C,0.98
19,A52U G68U,0.992
20,A52G U69G,1.07
21,A52G U69A,0.985
22,A52G U69C,1.06
23,A51C U69G,1.01
24,A51C U69A,1.05

row,Variant,self-cleavage
1,A51C U69C,1.08
2,G50U A59G,1.04
3,G50U A59U,0.834
4,G50U G58U,1.03
5,G50U G58A,0.948
6,A51U G58U,0.954
7,G50C U62C,0.763
8,G50C U62A,0.968
9,G50C U62G,0.755
10,A52C U69G,1.05
11,A52C U69C,1.05
12,A51C U64A,0.866
13,A51C U64C,0.787
14,U53A U61A,0.694
15,U53A U61C,0.583
16,A51G U53G,0.839
17,A51G U53A,0.981
18,A51G U53C,0.899
19,A51C A59U,0.742
20,A51C A59C,0.658
21,A51C A59G,0.96
22,G50U A60U,0.515
23,G50C U53G,0.654
24,G50C U53C,0.866

row,Variant,self-cleavage
1,A52C G58U,0.977
2,A51U U69C,1.07
3,A51U U69A,1.01
4,A51U U69G,1.06
5,A51G U69A,0.995
6,A51G U69G,1.03
7,A51C U53C,0.781
8,A51C U53A,0.851
9,A52G U55G,0.729
10,A52G U55A,0.914
11,A51G G65U,0.872
12,A51G G65A,0.948
13,A51G G65C,0.715
14,G50C C57U,0.384
15,G50C C57A,0.366
16,A52G A60G,0.922
17,A52G A60C,0.336
18,A51G C63A,0.884
19,A51G C63U,0.96
20,A51G C63G,0.772
21,G50U A51G,1.01
22,G50U A51U,0.995
23,A52G C66U,0.971
24,A52G C66A,0.845

row,Variant,self-cleavage
1,A51G G58C,1.01
2,A51G G58U,1.01
3,A52G C54A,0.931
4,A52G C54U,1.02
5,G50U A52C,0.979
6,G50U A52U,0.94
7,A51C A52G,0.914
8,A51C A52C,0.949
9,A51U U55C,0.561
10,A51U U55A,0.696
11,A52C C66U,0.912
12,A52C C66G,0.782
13,A52C C66A,0.68
14,A51C U62A,0.901
15,A51C U62C,0.76
16,U53A C63G,0.709
17,U53A C63U,0.909
18,A52G U53A,0.917
19,A52G G68C,0.975
20,A52G G68A,1.01
21,G50U G68C,1.03
22,G50U G68A,1.01
23,A51G A59U,0.859
24,A52C A59C,0.527

row,Variant,self-cleavage
1,A52C A59G,0.985
2,A52C C57G,0.26
3,A52U U61A,0.935
4,A52U U61C,0.68
5,G50C U69G,1.06
6,G50C U69A,0.978
7,A52G,0.995
8,A52U,0.99
9,A52C,0.993
10,G50U C63U,0.974
11,G50U C63A,0.874
12,A51U U64A,0.799
13,A51U U64G,0.826
14,A51U U64C,0.788
15,G50U U61C,0.841
16,G50U U61G,0.857
17,G50U U61A,0.97
18,U53A G56U,0.583
19,U53A A59C,0.571
20,U53A A59U,0.646
21,U53A A59G,0.98
22,A52G U61C,0.879
23,A52U U62A,0.829
24,A52U U62G,0.82

row,Variant,self-cleavage
1,A51C C63U,0.942
2,A51C C63A,0.748
3,A51G U62A,0.98
4,A51G U62C,0.884
5,A51G U62G,0.89
6,A52C G56C,0.536
7,A52C G56U,0.741
8,G50C C66U,0.981
9,G50C C66G,0.853
10,G50C C66A,0.728
11,A51G G56U,0.95
12,A52C U62A,0.882
13,A52C U62C,0.811
14,A52U G58U,0.992
15,A52U G58C,0.954
16,G50C G58U,0.995
17,G50C G58C,0.963
18,A51C C54U,0.928
19,A51C C54G,0.585
20,A51G C54A,0.854
21,A51G C54G,0.858
22,A51G C54U,0.986
23,U53A U62A,0.821
24,U53A U62C,0.634

row,Variant,self-cleavage
1,U53A U62G,0.74
2,A51G U61A,0.833
3,A51G U61G,0.85
4,A52U U64C,0.741
5,A52U U64G,0.666
6,G50C U67G,1.02
7,G50C U67C,0.994
8,A52G G65A,0.945
9,U53A U69A,1.01
10,U53A U69G,1.05
11,A51G A60U,0.589
12,A51G A60G,0.939
13,A51C U67A,0.961
14,A51C U67G,0.993
15,A51G U55C,0.839
16,A51G U55G,0.63
17,G50U U55C,0.766
18,A52G G58U,1
19,A52G G58A,0.926
20,G50U G56A,0.928
21,G50U G56U,0.91
22,A52U U67C,0.915
23,A52U U67G,0.987
24,A51G C57A,0.399

row,Variant,self-cleavage
1,A51G C57U,0.321
2,A51U C63G,0.815
3,A51U C63U,0.996
4,A52G U67A,1
5,A51U U67C,1.01
6,A51U U67A,0.976
7,A51U U67G,1
8,A51U C57G,0.238
9,A51U C57U,0.388
10,U53A C66G,0.624
11,U53A C66U,0.911
12,G50U C57G,0.264
13,G50U C57A,0.355
14,G50U C57U,0.366
15,G50U G65A,0.953
16,A51C U55A,0.643
17,A52U U53A,0.981
18,A52U U53G,0.871
19,A52U U53C,0.879
20,A51U,0.994
21,A51G,0.994
22,A51C,0.989
